Test results reported in patent publication US20090149389A1 (PURDUE RESEARCH FOUNDATION, published 2009).

Experiments:
Assay in all cases: cell-based or functional assay
IRAK4 (h) = molecular target: T1, IRAK4 (h) (human (h), UniProt Q9NWZ3 1-460, limits assumed)
T1 sequence (looked up): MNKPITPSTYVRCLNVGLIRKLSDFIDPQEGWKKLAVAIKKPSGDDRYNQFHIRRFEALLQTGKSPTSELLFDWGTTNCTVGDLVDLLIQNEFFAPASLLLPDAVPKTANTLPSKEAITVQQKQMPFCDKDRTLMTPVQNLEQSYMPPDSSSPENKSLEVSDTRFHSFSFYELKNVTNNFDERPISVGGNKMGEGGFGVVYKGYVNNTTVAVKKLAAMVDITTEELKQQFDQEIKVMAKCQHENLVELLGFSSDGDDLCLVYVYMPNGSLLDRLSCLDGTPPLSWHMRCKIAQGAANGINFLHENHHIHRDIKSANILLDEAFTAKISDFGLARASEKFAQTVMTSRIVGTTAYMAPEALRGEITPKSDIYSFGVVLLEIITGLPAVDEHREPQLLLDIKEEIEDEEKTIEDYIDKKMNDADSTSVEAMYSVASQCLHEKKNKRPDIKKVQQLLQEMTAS

Met (h) = Met (h) (human (h), UniProt P08581 974-1390, limits assumed)
PKA (h) = PKA (h) (human (h), UniProt P17612 1-351)
Rsk2 (h) = Rsk2 (h) (human (h), UniProt P51812 1-740)
Flt3 (h) = molecular target: T2, Flt3 (h) (human (h), UniProt P36888 564-993, limits assumed)
T2 sequence (looked up): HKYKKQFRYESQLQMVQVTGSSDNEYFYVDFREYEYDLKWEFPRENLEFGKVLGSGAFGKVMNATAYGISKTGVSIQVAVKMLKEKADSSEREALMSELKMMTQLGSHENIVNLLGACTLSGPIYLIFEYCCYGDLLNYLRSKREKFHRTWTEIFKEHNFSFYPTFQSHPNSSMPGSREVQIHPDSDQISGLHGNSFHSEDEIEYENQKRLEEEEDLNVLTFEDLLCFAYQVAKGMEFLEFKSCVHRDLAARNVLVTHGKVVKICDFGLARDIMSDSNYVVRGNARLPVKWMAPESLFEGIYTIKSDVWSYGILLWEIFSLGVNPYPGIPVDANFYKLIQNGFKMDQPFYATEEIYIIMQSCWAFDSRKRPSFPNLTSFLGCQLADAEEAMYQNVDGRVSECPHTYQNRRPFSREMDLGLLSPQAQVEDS

DYRK2 (h) = molecular target: T3, DYRK2 (h) (human (h), UniProt Q92630 1-601, limits assumed)
T3 sequence (looked up): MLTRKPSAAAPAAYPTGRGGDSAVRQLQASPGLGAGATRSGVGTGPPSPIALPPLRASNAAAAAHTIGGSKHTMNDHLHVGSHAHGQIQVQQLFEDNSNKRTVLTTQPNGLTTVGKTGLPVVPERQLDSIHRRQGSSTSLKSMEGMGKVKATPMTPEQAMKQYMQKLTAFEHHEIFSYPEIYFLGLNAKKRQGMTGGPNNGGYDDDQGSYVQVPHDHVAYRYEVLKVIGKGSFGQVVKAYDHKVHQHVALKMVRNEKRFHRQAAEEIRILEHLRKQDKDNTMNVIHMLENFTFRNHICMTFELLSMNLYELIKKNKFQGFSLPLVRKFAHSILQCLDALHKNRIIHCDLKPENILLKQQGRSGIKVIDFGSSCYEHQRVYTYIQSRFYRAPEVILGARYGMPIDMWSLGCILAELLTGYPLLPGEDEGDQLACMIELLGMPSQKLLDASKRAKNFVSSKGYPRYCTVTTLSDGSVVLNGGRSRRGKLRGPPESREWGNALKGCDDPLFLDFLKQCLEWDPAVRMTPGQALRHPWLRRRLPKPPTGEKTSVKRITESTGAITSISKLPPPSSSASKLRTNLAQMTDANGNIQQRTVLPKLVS

GSK3β (h) = GSK3β (h) (human (h), UniProt P49841 1-420)
Syk (h) = Syk (h) (human (h), UniProt P43405 1-635)
MEKI (h) = MEKI (h) (human (h), UniProt Q02750 1-393)
PhKγ2 (h) = molecular target: T4, PhKγ2 (h) (human (h), UniProt P15735 1-406)
T4 sequence (looked up): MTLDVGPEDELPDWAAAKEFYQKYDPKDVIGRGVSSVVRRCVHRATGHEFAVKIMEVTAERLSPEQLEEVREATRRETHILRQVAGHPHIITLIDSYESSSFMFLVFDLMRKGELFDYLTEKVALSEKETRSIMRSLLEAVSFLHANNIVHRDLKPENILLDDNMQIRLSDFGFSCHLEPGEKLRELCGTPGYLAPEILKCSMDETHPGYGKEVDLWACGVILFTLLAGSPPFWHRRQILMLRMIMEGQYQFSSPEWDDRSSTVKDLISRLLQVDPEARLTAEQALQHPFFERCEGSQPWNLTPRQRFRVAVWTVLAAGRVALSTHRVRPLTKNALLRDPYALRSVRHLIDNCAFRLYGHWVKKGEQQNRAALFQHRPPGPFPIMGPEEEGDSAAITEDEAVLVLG

TrkA (h) = TrkA (h) (human (h), UniProt P04629 441-796, limits assumed)
EphA2 (h) = molecular target: T5, EphA2 (h) (human (h), UniProt P29317 591-976, limits assumed)
T5 sequence (looked up): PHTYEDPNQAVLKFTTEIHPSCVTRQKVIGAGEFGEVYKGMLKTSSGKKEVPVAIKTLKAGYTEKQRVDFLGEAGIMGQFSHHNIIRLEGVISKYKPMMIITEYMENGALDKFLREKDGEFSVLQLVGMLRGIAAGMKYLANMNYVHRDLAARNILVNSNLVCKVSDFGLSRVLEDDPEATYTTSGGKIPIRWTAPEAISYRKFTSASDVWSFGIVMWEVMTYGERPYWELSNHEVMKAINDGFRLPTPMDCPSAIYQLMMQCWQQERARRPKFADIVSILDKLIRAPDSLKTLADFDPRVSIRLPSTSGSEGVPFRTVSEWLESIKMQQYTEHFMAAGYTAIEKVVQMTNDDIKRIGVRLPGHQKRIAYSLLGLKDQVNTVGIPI

Pim-1 (h) = Pim-1 (h) (human (h), UniProt P11309 1-313)
Chain of Pim-1 (h) (P11309 whole entry): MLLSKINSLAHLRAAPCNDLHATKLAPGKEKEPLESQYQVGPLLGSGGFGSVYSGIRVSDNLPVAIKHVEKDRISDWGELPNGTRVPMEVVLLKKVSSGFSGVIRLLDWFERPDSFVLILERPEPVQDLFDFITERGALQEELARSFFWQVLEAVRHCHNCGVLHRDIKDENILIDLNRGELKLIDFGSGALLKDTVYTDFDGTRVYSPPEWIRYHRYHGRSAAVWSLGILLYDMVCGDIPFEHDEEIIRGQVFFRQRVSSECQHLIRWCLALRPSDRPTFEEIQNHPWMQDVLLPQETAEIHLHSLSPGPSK

Chain of GSK3β (h) (P49841 whole entry): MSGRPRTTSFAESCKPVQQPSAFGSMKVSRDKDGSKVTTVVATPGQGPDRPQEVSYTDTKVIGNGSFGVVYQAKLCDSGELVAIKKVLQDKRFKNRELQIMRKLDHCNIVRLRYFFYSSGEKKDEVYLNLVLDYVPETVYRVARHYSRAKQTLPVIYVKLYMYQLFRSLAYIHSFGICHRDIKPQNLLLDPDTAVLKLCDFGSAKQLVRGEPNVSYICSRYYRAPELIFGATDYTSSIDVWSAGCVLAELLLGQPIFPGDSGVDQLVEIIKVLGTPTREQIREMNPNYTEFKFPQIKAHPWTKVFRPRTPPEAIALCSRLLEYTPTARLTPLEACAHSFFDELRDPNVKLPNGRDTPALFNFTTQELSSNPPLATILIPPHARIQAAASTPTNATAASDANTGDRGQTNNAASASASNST
Chain of Rsk2 (h) (P51812 whole entry): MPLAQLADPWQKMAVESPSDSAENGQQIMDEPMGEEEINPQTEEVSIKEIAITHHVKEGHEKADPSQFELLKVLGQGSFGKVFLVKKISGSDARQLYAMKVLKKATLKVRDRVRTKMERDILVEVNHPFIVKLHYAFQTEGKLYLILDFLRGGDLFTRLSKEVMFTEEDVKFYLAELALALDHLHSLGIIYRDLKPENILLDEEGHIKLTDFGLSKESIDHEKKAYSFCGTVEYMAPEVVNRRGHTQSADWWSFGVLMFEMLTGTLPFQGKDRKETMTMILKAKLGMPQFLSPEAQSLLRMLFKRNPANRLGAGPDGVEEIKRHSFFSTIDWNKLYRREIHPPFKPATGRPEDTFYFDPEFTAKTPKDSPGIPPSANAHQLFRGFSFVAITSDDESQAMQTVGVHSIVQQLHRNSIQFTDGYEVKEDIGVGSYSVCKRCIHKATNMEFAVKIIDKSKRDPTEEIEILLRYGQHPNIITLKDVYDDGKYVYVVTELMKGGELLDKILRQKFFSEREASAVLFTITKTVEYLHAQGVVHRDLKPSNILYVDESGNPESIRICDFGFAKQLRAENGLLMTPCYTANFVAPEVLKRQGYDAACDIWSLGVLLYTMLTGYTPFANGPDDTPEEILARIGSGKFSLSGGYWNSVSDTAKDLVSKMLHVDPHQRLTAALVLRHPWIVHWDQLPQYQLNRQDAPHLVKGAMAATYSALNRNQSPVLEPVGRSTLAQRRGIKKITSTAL
Chain of TrkA (h) (P04629 441-796 limits assumed): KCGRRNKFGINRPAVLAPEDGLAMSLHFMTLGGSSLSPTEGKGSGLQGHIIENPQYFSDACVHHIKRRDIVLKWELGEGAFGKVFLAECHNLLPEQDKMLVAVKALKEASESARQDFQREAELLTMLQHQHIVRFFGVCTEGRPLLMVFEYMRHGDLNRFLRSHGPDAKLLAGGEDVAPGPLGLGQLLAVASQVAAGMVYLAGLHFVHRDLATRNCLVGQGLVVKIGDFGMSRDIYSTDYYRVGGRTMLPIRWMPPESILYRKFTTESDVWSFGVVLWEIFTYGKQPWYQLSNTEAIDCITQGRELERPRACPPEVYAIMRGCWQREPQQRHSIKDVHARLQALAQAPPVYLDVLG
Chain of Met (h) (P08581 974-1390 limits assumed): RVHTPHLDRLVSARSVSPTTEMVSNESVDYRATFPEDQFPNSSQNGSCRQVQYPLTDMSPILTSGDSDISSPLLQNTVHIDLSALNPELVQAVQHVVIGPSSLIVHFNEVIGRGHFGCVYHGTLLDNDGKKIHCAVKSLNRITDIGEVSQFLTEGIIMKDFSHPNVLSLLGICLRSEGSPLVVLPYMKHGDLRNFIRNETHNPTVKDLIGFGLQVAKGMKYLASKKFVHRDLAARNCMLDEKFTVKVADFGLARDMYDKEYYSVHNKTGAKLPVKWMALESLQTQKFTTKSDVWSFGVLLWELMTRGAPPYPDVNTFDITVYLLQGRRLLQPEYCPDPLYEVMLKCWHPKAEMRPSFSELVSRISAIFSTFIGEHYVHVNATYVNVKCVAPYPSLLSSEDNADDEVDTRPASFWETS

Binder	Profile-1 @ = 100 µm (kinase profiler assay) (IRAK4 (h))	Profile-1 @ = 30 µm (kinase profiler assay) (Met (h))	Profile-1 @ = 30 µm (kinase profiler assay) (PKA (h))	Profile-1 @ = 30 µm (kinase profiler assay) (Rsk2 (h))	Profile-1 @ = 30 µm (kinase profiler assay) (Flt3 (h))	Profile-1 @ = 30 µm (kinase profiler assay) (DYRK2 (h))	Profile-1 @ = 30 µm (kinase profiler assay) (GSK3β (h))	Profile-1 @ = 30 µm (kinase profiler assay) (Syk (h))	Profile-1 @ = 30 µm (kinase profiler assay) (MEKI (h))	Profile-1 @ = 30 µm (kinase profiler assay) (PhKγ2 (h))	Profile-1 @ = 30 µm (kinase profiler assay) (TrkA (h))	Profile-1 @ = 30 µm (kinase profiler assay) (EphA2 (h))	Profile-1 @ = 30 µm (kinase profiler assay) (Pim-1 (h))
KAFAKLAARLYRKALARQLGVAA	16	–	–	–	–	–	–	–	–	–	–	–	–
WLRRIKAWLRRIKALNRQLGVAA	–	30	80	14	38	93	129	19	14	15	6	38	5
